For experiment [1], the target named is T1, huCD98hc ECD Avi-His (human, UniProt P08195 105-529).
T1 construct: biotinylated on the Avi tag where captured on streptavidin; also called Human CD98-AVI-His; Human CD98hc-AVI-His
T1 sequence: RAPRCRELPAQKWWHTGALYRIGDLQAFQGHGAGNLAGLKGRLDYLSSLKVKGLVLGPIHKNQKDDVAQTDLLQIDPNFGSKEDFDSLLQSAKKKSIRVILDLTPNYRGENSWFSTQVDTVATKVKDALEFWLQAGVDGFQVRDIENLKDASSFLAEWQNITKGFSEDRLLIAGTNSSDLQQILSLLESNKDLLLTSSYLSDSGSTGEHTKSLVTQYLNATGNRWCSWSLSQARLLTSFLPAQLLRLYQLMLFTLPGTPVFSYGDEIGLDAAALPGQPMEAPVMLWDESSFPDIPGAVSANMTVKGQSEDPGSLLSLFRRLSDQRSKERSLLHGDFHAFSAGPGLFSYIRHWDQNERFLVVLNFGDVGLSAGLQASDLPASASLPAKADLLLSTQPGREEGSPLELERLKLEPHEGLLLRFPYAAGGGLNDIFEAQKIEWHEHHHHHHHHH
Kind of experiment: SPR, Biacore T200, Protein A/G capture. The protocol: (§1) Binding kinetics of humanized anti-CD98hc antibodies were evaluated using the Biacore T200 (Cytiva). Briefly, IgGs were diluted to 10 μg/mL and captured using a Protein A/G (ThermoFisher, #21186) surface on a CM5 chip that was prepared by amine coupling according to the instrument manufacturer's recommendations. The captured antibodies were tested for their ability to bind human and cynomolgus monkey CD98hc as follows.
(§2) Each sample was injected for 2 minutes to allow association, followed by dissociation in buffer alone for 10 minutes. Each sample injection was followed by the regeneration of the chip with three 30-second injections of 10 mM glycine pH 1.7. Fresh antibody was captured at the beginning of each cycle.
(§3) Data were analyzed using Biacore evaluation software to generate kinetic constants. The equilibrium dissociation constants (KD) were calculated from the fitted association and dissociation rate constants (k-on and k-off) for each of the anti-CD98hc antibodies.

Experiment [2] deals with T2, Cyno CD98hc ECD Avi-His (cynomolgus macaque, UniProt P08195 105-529 (human entry)).
T2 construct: biotinylated on the Avi tag where captured on streptavidin; also called Cyno CD98-AVI-His; Cyno CD98hc-AVI-His
T2 chain: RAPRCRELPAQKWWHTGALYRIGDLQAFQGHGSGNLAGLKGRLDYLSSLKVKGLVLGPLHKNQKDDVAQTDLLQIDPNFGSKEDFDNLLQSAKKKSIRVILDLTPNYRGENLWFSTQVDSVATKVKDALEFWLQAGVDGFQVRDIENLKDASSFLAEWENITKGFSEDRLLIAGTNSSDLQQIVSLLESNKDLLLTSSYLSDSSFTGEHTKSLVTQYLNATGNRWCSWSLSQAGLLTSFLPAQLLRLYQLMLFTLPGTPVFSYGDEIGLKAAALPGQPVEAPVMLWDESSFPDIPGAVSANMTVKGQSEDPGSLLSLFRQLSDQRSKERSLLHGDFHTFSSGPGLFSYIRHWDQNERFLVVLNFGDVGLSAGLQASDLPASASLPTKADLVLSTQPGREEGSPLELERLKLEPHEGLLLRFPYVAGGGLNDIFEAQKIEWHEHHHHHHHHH
Briefly: SPR, Biacore T200, Protein A/G capture. The protocol: as §1, §2, §3

In experiment [3] the target is T1, huCD98hc ECD Avi-His. Kind of experiment: SPR, Biacore T200, anti-kappa capture. The protocol:
(§4) Binding kinetics of 2+1 anti-CD98hc bispecific antibodies to recombinant human and cynomolgus CD98hc ECD Avi-His were evaluated using a Biacore T200 instrument (Global Life Sciences Solutions USA LLC, Marlborough, MA). The 2+1 anti-CD98hc bispecific antibodies were prepared by diluting to 50 μg/mL in running buffer HBS-EP+ (Teknova) with 0.5 mg/mL BSA (MP Biomedicals) and captured by a goat anti-human kappa polyclonal antibody (Southern Biotech) surface that was prepared according to the instrument manufacturer's recommendations. Two independent experiments were performed as follows, resulting in an N of between one and […] determinations for each antibody. Estimates of affinity were generated by injecting each analyte over captured antibody on Flowcell 2, 3, or 4. CD98hc ECD Avi-His analytes were diluted with running buffer, in a series of five, three-fold serial dilutions starting from 600 nM. Analytes were injected without regeneration, from lowest to highest concentration, for 5 minutes each, and dissociation was followed for 15 minutes. After each analyte injection series, antibodies were regenerated with 10 mM glycine pH 2.0 buffer (Cytiva). Data were processed and analyzed using Biacore T200 BiaEvaluation software (Cytiva).
(§5) The equilibrium dissociation constants (KD) were calculated from the fitted association and dissociation rate constants (k-on and k-off) for 2+1 anti-CD98hc bispecific antibodies of the present disclosure binding to human and cynomolgus CD98hc ECD Avi-His. For measurements with N>1, means and standard deviation were calculated and measurements for all samples were combined and graphed using GraphPad Prism.

Experiment [4] deals with T2, Cyno CD98hc ECD Avi-His. Kind of experiment: SPR, Biacore T200, anti-kappa capture. The protocol: as §4, §5
A general note: Surface plasmon resonance follows binding to a sensor surface in real time, without labels.

Results on 6 molecules are retold here after patent US20250270341A1 (Alector, published 2025).

B1: CD98hc.04.064.1d (humanized, 2+1 format) (bispecific antibody)
scFv: QVQLVQSGAEVKKPGASVKVSCKASGYTFTSYWMNWVRQAPGQGLEWMGIIDPSDSETSYAQKFQGRVTMTVDKSTSTVYMELSSLRSEDTAVYYCARASYGKGYFDYWGQGTLVTVSSGGSEGKSSGSGSESKSTGGSDIVMTQSPDSLAVSLGERATINCKSSQSLLNNINQKNYLAWYQQKPGQPPKLLIYFASTRESGVPDRFSGSGSGTDFTLTISSLQAEDVAVYYCQQHYSSPFTFGGGTKVEIK
notes: tested as 2+1 bispecific (scFv on an IgG)
As for B1, the Kd with huCD98hc ECD Avi-His [1] turned out to be 35 nM; in the experiment with Cyno CD98hc ECD Avi-His [2], 1500 nM; with huCD98hc ECD Avi-His [3] it was 24 nM; with Cyno CD98hc ECD Avi-His [4], 360 nM.

B2: CD98hc.04.064.4c (humanized, 2+1 format) (bispecific antibody)
scFv: QVQLVQSGAEVKKPGASVKVSCKASGYTFTSYWMHWVRQAPGQGLEWMGIIDPSDSETNYAQKFQGRVTSTVDKSISTAYMELSRLRSDDTVVYYCARASYGKGYFDYWGQGTLVTVSSGGSEGKSSGSGSESKSTGGSDIVMTQSPDSLAVSLGERATINCKSSQSLLNNINQKNYLAWYQQKPGQPPKLLIYFASTRESGVPDRFSGSGSGTDFTLTISSLQAEDVAVYYCQQHYSSPFTFGGGTKVEIK
notes: as for B1
Take B2: the equilibrium dissociation constant (Kd) in the experiment with huCD98hc ECD Avi-His [3] stood at 17 nM; with Cyno CD98hc ECD Avi-His [4] it was 310 nM.

B3: CD98hc.04.064.4b (humanized, 2+1 format) (bispecific antibody)
scFv: QVQLVQSGAEVKKPGASVKVSCKASGYTFTSYWMNWVRQAPGQGLEWMGIIDPSDSETNYAQKFQGRVTSTVDKSISTAYMELSRLRSDDTVVYYCARASYGKGYFDYWGQGTLVTVSSGGSEGKSSGSGSESKSTGGSDIVMTQSPDSLAVSLGERATINCKSSQSLLNNINQKNYLAWYQQKPGQPPKLLIYFASTRESGVPDRFSGSGSGTDFTLTISSLQAEDVAVYFCQQHYSSPFTFGGGTKVEIK
notes: as for B1
Consider B3, for which the Kd came out at 30 nM with huCD98hc ECD Avi-His [3] and 620 nM with Cyno CD98hc ECD Avi-His [4].

B4: CD98hc.04.064.4a (humanized, 2+1 format) (bispecific antibody)
scFv: QVQLVQSGAEVKKPGASVKVSCKASGYTFTSYWMNWVRQAPGQGLEWMGIIDPSDSETNYAQKFQGRVTSTVDKSISTAYMELSRLRSDDTVVYYCARASYGKGYFDYWGQGTLVTVSSGGSEGKSSGSGSESKSTGGSDIVMTQSPDSLAVSLGERATINCKSSQSLLNNINQKNYLAWYQQKPGQPPKLLIYFASTRESGVPDRFSGSGSGTDFTLTISSLQAEDVAVYYCQQHYSSPFTFGGGTKVEIK
notes: as for B1
In the case of B4, the figures for the Kd in the experiment with huCD98hc ECD Avi-His [3] and with Cyno CD98hc ECD Avi-His [4] were 34 nM and 430 nM, respectively.

B5: CD98hc.04.064.1e (humanized, 2+1 format) (bispecific antibody)
scFv: QVQLVQSGAEVKKPGASVKVSCKASGYTFTSYWMHWVRQAPGQGLEWMGIIDPSDSETHYAQKFQGRVTMTVDKSTSTVYMELSSLRSEDTAVYYCARASYGKGYFDYWGQGTLVTVSSGGSEGKSSGSGSESKSTGGSDIVMTQSPDSLAVSLGERATINCKSSQSLLNNINQKNYLAWYQQKPGQPPKLLIYFASTRESGVPDRFSGSGSGTDFTLTISSLQAEDVAVYYCQQHYSSPFTFGGGTKVEIK
notes: as for B1
Turning to B5, the Kd in the experiment with huCD98hc ECD Avi-His [1] turned out to be 25 nM; with Cyno CD98hc ECD Avi-His [2], 740 nM; with huCD98hc ECD Avi-His [3], 13 nM; with Cyno CD98hc ECD Avi-His [4] it was 120 nM.

B6: CD98hc.04.064.4d (humanized, 2+1 format) (bispecific antibody)
scFv: QVQLVQSGAEVKKPGASVKVSCKASGYTFTSYWMHWVRQAPGQGLEWMGIIDPSDSETSYAQKFQGRVTMTRDTSTSTVYMELSSLRSEDTAVYYCARASYGKGYFDYWGQGTLVTVSSGGSEGKSSGSGSESKSTGGSDIQMTQSPSSLSASVGDRVTITCRASQSLLNNINQKNYLAWYQQKPGKAPKLLIYFASSLQSGVPSRFSGSGSGTDFTLTISSLQPEDFATYYCQQHYSSPFTFGGGTKVEIK
notes: as for B1
As to B6, the Kd was determined as 18 nM with huCD98hc ECD Avi-His [1], 340 nM with Cyno CD98hc ECD Avi-His [2], 12 nM with huCD98hc ECD Avi-His [3] and 160 nM with Cyno CD98hc ECD Avi-His [4].

A word on the Kd: it is the constant that tells how readily two partners part at equilibrium.
